Data published in US20230056486.
“And” between values parts separate entries of the source, which are not always exact repeats. Equal entries are not always repeated.

Target: T1, (GR)10 dipeptide repeat peptide
T1 chain: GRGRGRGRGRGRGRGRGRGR

B1: Proteinase K (protein)
chain: AAQTNAPWGLARISSTSPGTSTYYYDESAGQGSCVYVIDTGIEASHPEFEGRAQMVKTYYYSSRDGNGHGTHCAGTVGSRTYGVAKKTQLFGVKVLDDNGSGQYSTIIAGMDFVASDKNNRNCPKGVVASLSLGGGYSSSVNSAAARLQSSGVMVAVAAGNNNADARNYSPASEPSVCTVGASDRYDRRSSFSNYGSVLDIFGPGTSILSTWIGGSTRSISGTSMATPHVAGLAAYLMTLGKTTAASACRYIADTANKGDLSNIPFGTVNLLAYNNYQA
For B1, the (GR)10 concentration left at 0 min (LC/MS; 50 µM start; TFA added before enzyme) was 44.9 µM and 49.4 µM, the (GR)10 concentration left at 2.5 min (LC/MS; 50 µM start) was 55.8 µM and 55.4 µM and the (GR)10 concentration left at 5 min (LC/MS; 50 µM start) was 54.4 µM and 48.8 µM. For the same protein, the (GR)10 concentration left at 10 min (LC/MS; 50 µM start) was 50.3 µM and 44.1 µM.

B2: clostripain (protein)
chain: NKNQKVTIMYYCDADNNLEGSLLNDIEEMKTGYKDSPNLNLIALVDRSPRYSSDEKVLGEDFSDTRLYKIEHNKANRLDGKNEFPEISTTSKYEANMGDPEVLKKFIDYCKSNYEADKYVLIMANHGGGAREKSNPRLNRAICWDDSNLDKNGEADCLYMGEISDHLTEKQSVDLLAFDACLMGTAEVAYQYRPGNGGFSADTLVASSPVVWGPGFKYDKIFDRIKAGGGTNNEDDLTLGGKEQNFDPATITNEQLGALFVEEQRDSTHANGRYDQHLSFYDLKKAESVKRAIDNLAVNLSNENKKSEIEKLRGSGIHTDLMHYFDEYSEGEWVEYPYFDVYDLCEKINKSENFSSKTKDLASNAMNKLNEMIVYSFGDPSNNFKEGKNGLSIFLPNGDKKYSTYYTSTKIPHWTMQSWYNSIDTVKYGLNPYGKLSWCKDGQDPEINKVGNWFELLDSWFDKTNDVTGGVNHYQW
B2 was tested, and the (GR)10 concentration left at 0 min (LC/MS; 50 µM start; TFA added before enzyme) was 39.7 µM and 37.9 µM, the “(GR)10 concentration left at 30 min (LC/MS; 50 µM start)” value was “BLQ” and the “(GR)10 concentration left at 60 min (LC/MS; 50 µM start)” value was “BLQ”. For the same protein, the “(GR)10 concentration left at 120 min (LC/MS; 50 µM start)” value was “BLQ”, the (GR)10 left in CSF; Clostripain + DTT-Immobilized-5 min reaction (LC/MS; 200 µM (GR)10 in human CSF) (normalized µM) was 58 and the (GR)10 left in CSF; Clostripain + DTT-Immobilized-60 min reaction (LC/MS; 200 µM (GR)10 in human CSF) (normalized µM) was -0. The (GR)10 left in CSF; Clostripain-Immobilized-5 min reaction, no DTT (LC/MS; 200 µM (GR)10 in human CSF) (normalized µM) was 395, the (GR)10 left in CSF; Clostripain-Immobilized-60 min reaction, no DTT (LC/MS; 200 µM (GR)10 in human CSF) (normalized µM) was -0 and the (GR)10 left; Clostripain + DTT-Immobilized-5 min reaction (LC/MS) (µM (normalized to GR concentration)) was -0. For the same protein, the (GR)10 left; Clostripain + DTT-immobilized-60 min reaction (LC/MS) (µM (normalized to GR concentration)) was -0, the (GR)10 left; Clostripain + DTT-in solution-5 min reaction (LC/MS) (µM (normalized to GR concentration)) was 5.7 and the (GR)10 left; Clostripain + DTT-in solution-60 min reaction (LC/MS) (µM (normalized to GR concentration)) was -0. The (GR)10 left; Clostripain + DTT-resin wash from 5 min reaction (LC/MS) (µM (normalized to GR concentration)) was -0, the (GR)10 left; Clostripain + DTT-resin wash from 60 min reaction (LC/MS) (µM (normalized to GR concentration)) was -0 and the (GR)10 left; Clostripain-Immobilized-5 min reaction, no DTT (LC/MS) was 0 µM. For the same protein, the (GR)10 left; Clostripain-immobilized-60 min reaction, no DTT (LC/MS) was 0 µM, the (GR)10 left; Clostripain-in solution-5 min reaction, no DTT (LC/MS) was 12.4 µM and the (GR)10 left; Clostripain-in solution-60 min reaction, no DTT (LC/MS) was 0 µM. The (GR)10 left; Clostripain-resin wash from 5 min reaction, no DTT (LC/MS) was 0 µM and the (GR)10 left; Clostripain-resin wash from 60 min reaction, no DTT (LC/MS) was 0 µM.
